From patent US20060204443A1, “Methods for tumor treatment using dendrimer conjugates” (The Government of the USA as represented by the Secretary …, priority 2005, published 2006)
“Also recorded” adds a separate entry of the source.

How the values were obtained:
[1] = Quantification of contrast agent in sentinel lymph nodes (signal intensity compared with phantoms); format: in vivo, athymic nu/nu mice
Description: In order to semi-quantify the concentration of contrast agent within each sentinel lymph node, non-tumor bearing athymic nu/nu mice (n=8) were anesthetized and injected with 0.40 μmolGd of the G6 contrast agent (40 mMGd/6400 ppm) into the mammary gland, and axial images were taken with serum phantoms containing known concentrations (2.5 and 5 mM) of G6 using the 3D-fastSPGR (repetition time/echo time 19.2/7.2 msec; inversion time 47 msec; bandwidth 31.2 kHz, flip angle 30°, 3 excitations; 16 slice encoding steps; scan time 2 minutes 25 seconds) 12, 24, 36, 48, and 60 minutes after injection.
To validate the concentration of G6 agent, we used another method to calculate the Gd concentration in the enhanced left axillary lymph node. The consecutive MR images of 5 separate mice together with the same phantoms used above were taken with the same 3D-fSPGR protocol using 4 flip angles (10, 20, 30, and 40 degrees) at 24 min post-injection of 40 mM/20 μL G6 agent in the left mammary gland. Signal intensity of the enhanced left axillary lymph node was corrected with that in the right axillary lymph node as a non-enhanced control. Then, signal intensities obtained with different flip angles were plotted in order to calculate decreased T1 values in the left axillary lymph node due to the presence of G6 agent. Gd(III) concentrations were calculated based on the decreased T1 values in the enhanced node and the R1 relaxivity of G6 agent at this condition. Technically, multi-flip angle scans were able to be performed once an hour because of the gradient driver overheat on the MRI system. In order to calculate serial concentration of the G6 agent, this separate set of mice was used only to obtain the T1 values. The serial concentrations of G6 agent were calculated based on serial scan data under flip angle (30°) and T1 values obtained from multi-flip angle scans.

[2] = in vivo
[3] = test system: axillary lymph nodes and their lymphatic vessels; assay: Dynamic 3D-MR lymphangiography, effect of contrast agent size (Example 4); format: in vivo, athymic nu/nu mice; details: for Signal intensity within the axillary lymph node (enhancement ratio, lymph node / adjacent muscle): 0.15 μmolGd/5 μL
Description: Mice were anesthetized with 1.15 mg sodium pentobarbital (Dainabot, Osaka, Japan) by intraperitoneal injection. Then 0.15 μmolGd/5 μL of all nano-size contrast agents or 0.45 μmolGd/5 μL of Gd-[DTPA]-dimeglumine were injected into normal mammary glands or mammary tissue surrounding a tumor. Dynamic MR images were obtained using a 1.5-Tesla superconductive magnet unit (Signa LX, General Electric Medical System, Milwaukee, Wis.) with a birdcage type coil of 3 cm diameter fixed by a custom-made coil holder. The mice were wrapped with gauze to conserve their body temperature and were placed at the center of the coils.
In order to evaluate the effect of contrast agent molecular size on the ability to visualize the lymphatics and lymph nodes of athymic nu/nu mice, thirty five non-tumor bearing nu/nu mice were divided into seven groups (n=5). The mice were evaluated with 3D-fast spoiled gradient echo (3D-fastSPGR (efgre3d package; Signa Horizon, GE); repetition time/echo time 19.2/7.2 msec; inversion time 47 msec; bandwidth 31.2 kHz, flip angle 30°, 4 excitations; 36 slice encoding steps; scan time 4 minutes 49 seconds) with chemical shift fat-suppression at 6, 12, 18, 24, 30, and 36 minutes post-injection of each contrast agent. The coronal images were reconstructed with 0.6-mm section thickness every 0.3-mm. The field of view was 8×4 cm and the size of the matrix was 512×256. The slice data were processed into 3D images using the maximum intensity projection (MIP) method with the same window and level (window 3500 and level 2100) (Advantage Windows, General Electric Medical System). The enhancement ratio was calculated by taking the average signal intensity in the axillary lymph node and dividing it by the signal intensity in the adjacent muscle.

## PAMAM-G6D-(Gd-1B4M)256 dendrimer conjugate
[1]; five mice
  Time of maximum concentration in the axillary lymph node: 24 minutes post-injection in two of five mice and 36 minutes post-injection in three of five mice
[1]; mouse, in vivo
  Retention in the left axillary lymph node (FIG. 23): maintained in high concentration in the lymph node for up to 60 minutes post-injection
[1]; number of mice
  Accumulation in the lateral thoracic lymph nodes: three of five mice
[2]
  Survival in the lymph system: intermediate survival period in the lymph system
[3]; 6-36 minutes post-injection into mammary gland, listed as G6
  Visualization of axillary lymph nodes and their lymphatic vessels: earliest and most intense opacification of the sentinel lymph nodes; also recorded: visualized at all time points in all 10 mice
[3]; 6 minutes post-injection
  Signal intensity within the axillary lymph node (enhancement ratio, lymph node / adjacent muscle): 2.6±0.2
[3]; 12 minutes post-injection
  Signal intensity within the axillary lymph node (enhancement ratio, lymph node / adjacent muscle): 2.9±0.3
